Article PMC10367076, “Mechanistic and Structural Insights into a Divergent PLP-Dependent L-Enduracididine Cyclase from a Toxic Cyanobacterium” (ACS Catalysis, 2023)

Columns and labels:
[1] = test system: N=C(N)NC[C@@H](O)C[C@H](N)C(=O)O; assay: purified protein; conditions: KPi buffer; PLP cofactor co-purified; cyclodehydration to L-enduracididine
[2] = target: GntC E9A (Sphaerospermopsis torques-reginae ITEP-024); assay: SEC; analytical size exclusion chromatography of purified wild-type GntC and mutants
[3] = target: GntC E9D (Sphaerospermopsis torques-reginae ITEP-024); assay: as above
[4] = target: GntC E9Q (Sphaerospermopsis torques-reginae ITEP-024); assay: as above
[5] = target: GntC K219A (Sphaerospermopsis torques-reginae ITEP-024); assay: as above
[6] = target: GntC N52A (Sphaerospermopsis torques-reginae ITEP-024); assay: as above
[7] = target: GntC N52D (Sphaerospermopsis torques-reginae ITEP-024); assay: as above
[8] = target: GntC N52Q (Sphaerospermopsis torques-reginae ITEP-024); assay: as above
[9] = target: GntC S25A (Sphaerospermopsis torques-reginae ITEP-024); assay: as above
[10] = target: GntC T84A (Sphaerospermopsis torques-reginae ITEP-024); assay: as above
[11] = target: GntC T84V (Sphaerospermopsis torques-reginae ITEP-024); assay: as above
[12] = target: Sphaerospermopsis torques-reginae ITEP-024 GntC (Sphaerospermopsis torques-reginae ITEP-024); assay: as above

## GntC (Sphaerospermopsis torques-reginae ITEP-024)
[1]
  Km: 150 ± 80 µM
  kcat: 0.0061 ± 0.008 min^–1

## GntC E9A (enzyme)
[2]
  stoichiometry N: 2

## GntC E9D (enzyme)
[3]
  stoichiometry N: 2

## GntC E9Q (enzyme)
[4]
  stoichiometry N: 2

## GntC K219A (enzyme)
[5]
  stoichiometry N: 2

## GntC N52A (enzyme)
[6]
  stoichiometry N: 2

## GntC N52D (enzyme)
[7]
  stoichiometry N: 2

## GntC N52Q (enzyme)
[8]
  stoichiometry N: 2

## GntC S25A (enzyme)
[9]
  stoichiometry N: 2

## GntC T84A (enzyme)
[10]
  stoichiometry N: 2

## GntC T84V (enzyme)
[11]
  stoichiometry N: 2

## Sphaerospermopsis torques-reginae ITEP-024 GntC (enzyme)
[12]
  stoichiometry N: 2
